Source: PMC9460772 (2022)

Target: PPIA (Homo sapiens, UniProt P62937)
Assay: NMR

Kd: 23 µM
B1: PR20 proline-arginine dipeptide repeat (peptide)
chain: PRPRPRPRPRPRPRPRPRPRPRPRPRPRPRPRPRPRPRPR
